Data: patent US8470576B2, “Group of novel enantioselective microbial nitrile hydratases with broad substrate specificity” (B.R.A.I.N. AG, priority 2006, dated 2013)
Positions count from the first letter of the chain named.

Experiments:
[1] = Enantioselectivity of NHases towards rac-2-phenylpropionitrile (washed cells, chiral HPLC); assay type: biochemical; details: for E-value: kinetic resolution of rac-2-phenylpropionitrile; for enantiopreference: rac-2-phenylpropionitrile
Description: For the determination of enantioselectivity towards rac-mandelonitrile and 2-phenylpropionitrile 40-50 mg of washed cells were resuspended in 1 ml of 50 mM Tris/HCl pH 7.5. 100 μl of cell suspension were mixed with 800 μl 50 mM Tris/HCl pH 7.5 and incubated at 30° C. in a thermomixer at 1000 rpm. The biotransformation was started by addition of 100 μl of 10 mM rac-mandelonitrile or rac-2-phenylpropionitrile in 50 mM Tris/HCl pH 7.5. The reaction was stopped by addition of 100 μl 1M HCl after 1, 5 or 10 min. Cells were removed by centrifugation and the supernatant analysed by chiral HPLC for the presence of mandeloamide and phenylpropionamide, respectively. rac-Mandeloamide was analysed on a HPLC comprising a Surveyor 4 channel Pump, AutoSampler and UVNIS detector at 210 nm from Thermo Finnigan on a Nucleodex β-OH column (Macherey & Nagel) using 50% methanol/water:water (40:60) as mobile phase at a flow rate of 0.7 ml/min. The apparent enantiomeric ratio (Eapp) of the conversion of mandelonitrile was calculated according to Straathof and Jongejan for asymmetric catalysis (see example 9). In case of 2-phenylpropionamide, the samples were lyophilized and resuspended in n-hexane: 2-propanol (80:20). Prior to injection, the samples were additionally dried with sodium sulfate and were centrifugated at 16,000 g for 5 min. The supernatants were analyzed using a Chiracel OD column (Daicel) on a Spectra System (AS3000, P2000, UV2000 at 210 nm) from Thermo Separation Products with n-hexane: 2-propanol (80:20) as mobile phase at a flow rate of 0.5 ml/min. The enantiomeric ratio (E) of the conversion of PPN was calculated according to Chen et al.

[2] = Dependence of NHase activity on the pH; assay type: biochemical
Description: (§1) Cell free crude extracts from Raoultella terrigena (77.1) were incubated for 5 min at 30° C. and the indicated pH-values. The reaction was subsequently started by addition of substrate (1 mM PPN). The activity was determined as described in example 4. Buffers used: McIlvaine buffer: ˜0.1 M citrate/phosphate-buffer; Tris-buffer: 0.1 M Tris/HCl-buffer
as §1, with “E. coli BL21 (DE3) pET22-77.1a/pET26—77.1b” for “Raoultella terrigena (77.1)”
Cell free crude extracts from Klebsiella sp. (77.1) and E. coli BL21 (DE3) pET22—77.1a/pET26—77.1b were incubated for 5 min at 30° C. and the indicated pH-values. The reaction was subsequently started by addition of substrate (1 mM PPN). The activity was determined as described in example 4. Buffers used: McIlvaine buffer: ˜0.1 M citrate/phosphate-buffer
(§2) Lyophilized cells were incubated for 5 min at the indicated pH-values. The reaction was subsequently started by addition of substrate (1 mM PPN). The activity was determined as described in example 4. Buffers used: McIlvaine buffer: ˜0.1 M citrate/phosphate-buffer; Tris-buffer: 0.1 M Tris/HCl-buffer
as §2, with “Cell free crude extracts” for “Lyophilized cells”
If not otherwise indicated enzyme samples were prepared as follows: the cells from 1 ml of the culture were washed with 50 mM Tris/HCl pH 7.5 and resuspended in 750 μl of the same buffer. This suspension was incubated at 30° C. in a thermomixer at 1000 rpm. The biotransformation was started by addition of the substrate 2-phenylpropionitrile (PPN) in 50 mM Tris/HCl pH 7.5. The concentration of the substrate was 1 mM, if not otherwise stated. The reaction was stopped after 1 min, 5 min or 10 min as indicated by addition of 1 M HCl. Cells were removed by centrifugation and the supernatant analysed by HPLC for the presence of the corresponding amide. The HPLC analysis was carried out on a system comprising a Surveyor 4 channel Pump, AutoSampler and UVNIS detector at 210 nm from Thermo Finnigan on a Grom-Sil 1200DS-3 cp 3 μm (125×4.6 mm) reverse phase column. As mobile phase, acetonitrile and 0.3% H3PO4 were used in a ratio of 50:50 at a flow of 0.7 ml/min, respectively.
The pH-optimum for the enzyme according to Seq ID No. 2 and 4 (Raoultella terrigena, 77.1) has its pH-optimum at pH 6.75 (FIG. 27).
The NHase according to Seq ID. No. 18 and 20 (Klebsiella oxytoca, 38.1.2) was determined to be between pH 7.0-pH 7.5 (FIG. 28 and FIG. 29). […] At a pH 10, the residual activity of the enzyme is about 65-75%.

[3] = Determination of the isoelectric point (Phast-System); assay type: physicochemical; details: purified enzyme
Description: The IEP of the purified enzyme according to Seq. ID No. 2 and 4 was determined to be 3.5-3.6 using the Phast-System (Amersham Pharmacia).

B1: NHase Seq ID No. 2 and 4: nitrile hydratase of Raoultella terrigena strain 77.1, α-subunit SEQ ID NO 2, β-subunit SEQ ID NO 4 (protein)
alpha: MSHKHDHDHTEPPVDIELRVRALESLLQEKGLIDPAALDELIDTYEHKVGPRNGAQVVARAWSDPEYKRRLMENATAAISELGFSGIQGEDMLVVENTPDVHNVTVCTLCSCYPWPVLGLPPVWYKSAPYRSRIVIDPRGVLAEFGLHIPESKEIRVWDSSAELRYLVLPERPAGTDGWSEAQLSELISRDSMIGTGVVTAP
beta: MNGIHDLGGMHGFGPIPTEENEPYFHHEWERRVFPMFASLFVGVHFNVDEFRHSIECMPPADYLQSSYYEHWLHAFETLLLAKGVITVDELWGGAKPTLCKPGTPVLTQDMVSMVVSTGGSARVSHDVAPRFRVGDRVRTKNFNPTTHTRLPRYARDKVGRIEIAHGVFITPDTAAHGLGEHPQHVYSVSFTAQELWGEPRPDNVFIDLWDDYLEEA
modifications: Raoultella terrigena, strain 77.1
[1]
  E-value: 47
  enantiopreference: (S)
[2]; 1 mM PPN
  pH-optimum: 6.75
[2]; homologously produced enzyme
  residual activity at pH 4.0: about 6%
[2]
  residual activity at pH 10: about 27%
[2]; recombinantly produced enzyme
  activity at pH<6.0: no activity
[3]
  IEP: 3.5-3.6

B2: NHase Seq ID No. 18 and 20: nitrile hydratase of Klebsiella oxytoca strain 38.1.2, α-subunit SEQ ID NO 18, β-subunit SEQ ID NO 20 (protein)
alpha: B1 alpha with E11Q, S80A, S152N, D177E, S189T
beta: MNGIHDLGGMHGLGPIPTEENEPYFHHEWERRVFPLFASLFVGGHFNVDEFRHAIERMAPTEYLQSSYYEHWLHAFETLLLAKGVITVEELWGGAKPAPCKPGTPVLTQEMVSMVVSTGGSARVSHDVAPRFRVGDWVRTKNFNPTTHTRLPRYARDKVGRIEIAHGVFITPDTAAHGLGEHPQHVYSVSFTAQALWGEPRPDKVFIDLWDDYLEEA
modifications: Klebsiella oxytoca, strain 38.1.2
[1]
  E-value: 35
  enantiopreference: (S)
[2]; crude cell extracts
  activity at pH-value<6: inactivated
[2]; lyophilized cells
  residual activity at pH 3.0: about 10%
[2]
  residual activity at pH 10: 65-75%
